Values of other authors as cited in article PMC4495883.

Molecular target: insulin-degrading enzyme (112 kDa protein) (Rattus norvegicus) (UniProt P35559)
Test: cross-linking

Sequence of UniProt P35559 (P35559 whole entry): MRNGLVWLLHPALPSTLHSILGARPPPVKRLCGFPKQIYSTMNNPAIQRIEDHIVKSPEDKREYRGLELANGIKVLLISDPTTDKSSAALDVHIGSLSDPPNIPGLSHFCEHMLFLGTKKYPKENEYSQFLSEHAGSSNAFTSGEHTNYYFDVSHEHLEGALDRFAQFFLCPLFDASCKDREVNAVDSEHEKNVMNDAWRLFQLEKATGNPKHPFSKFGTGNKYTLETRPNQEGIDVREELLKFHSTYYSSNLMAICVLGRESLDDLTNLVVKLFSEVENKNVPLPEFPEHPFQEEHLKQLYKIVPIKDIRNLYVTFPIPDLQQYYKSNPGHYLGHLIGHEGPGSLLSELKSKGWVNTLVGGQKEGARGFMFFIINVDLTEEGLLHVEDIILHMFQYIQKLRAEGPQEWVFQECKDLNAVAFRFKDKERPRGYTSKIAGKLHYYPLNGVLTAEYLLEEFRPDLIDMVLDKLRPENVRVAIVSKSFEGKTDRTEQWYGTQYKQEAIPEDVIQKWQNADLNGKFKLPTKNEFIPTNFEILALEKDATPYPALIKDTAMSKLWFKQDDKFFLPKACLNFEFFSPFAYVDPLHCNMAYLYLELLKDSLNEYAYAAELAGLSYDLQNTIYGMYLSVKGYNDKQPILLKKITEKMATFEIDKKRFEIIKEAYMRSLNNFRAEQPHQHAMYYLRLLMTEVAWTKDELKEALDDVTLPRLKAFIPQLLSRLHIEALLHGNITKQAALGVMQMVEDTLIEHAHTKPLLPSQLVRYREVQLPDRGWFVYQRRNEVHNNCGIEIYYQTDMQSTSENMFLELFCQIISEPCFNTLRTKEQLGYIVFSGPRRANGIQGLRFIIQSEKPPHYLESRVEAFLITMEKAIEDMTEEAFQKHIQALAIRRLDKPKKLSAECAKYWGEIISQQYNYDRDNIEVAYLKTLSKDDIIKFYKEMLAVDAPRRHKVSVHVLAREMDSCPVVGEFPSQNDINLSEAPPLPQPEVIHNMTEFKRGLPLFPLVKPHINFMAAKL

**Q.** For ANP (from UniProt P01161), which Kd is on record?
**A.** 60 nM
